This passage reports Kd results from doi:10.1101/2024.04.22.590536 (bioRxiv, 2024).

As usually defined, the Kd is the free concentration of one partner at which half of the binding sites on the other are occupied at equilibrium, for simple one-to-one binding. Read a low Kd as a tighter complex.

The test deals with T1, GST-tagged Ifh1 activation domain (AA 703-811) (S. cerevisiae, UniProt P39520 703-811).
T1 sequence (looked up): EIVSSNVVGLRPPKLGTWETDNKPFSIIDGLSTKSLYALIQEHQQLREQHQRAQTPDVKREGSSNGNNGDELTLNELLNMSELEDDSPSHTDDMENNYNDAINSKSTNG
In words: fluorescence polarisation. A general note: In fluorescence polarisation assays a small probe gives low polarisation when free and higher when bound to something large.

Where no end group is shown, it is not given here.

Consider NNNSRNNFNNRRGGRGARKGNNTANATNSANTVQKNRNIDVSNLPSLA (peptide, UniProt P39015 226-273, looked up, also: TAMRA label, position not given here) [TAMRA-labelled Stm1-IDR peptide (AA 226-273)], for which the dissociation constant (Kd) is about 1400 nM.
